The experiment concerns the target mammalian cell-expressed human COMP (Cartilage Oligomeric Matrix Protein) (human) (UniProt P49747).

mammalian cell-expressed human COMP (Cartilage Oligomeric Matrix Protein) (human), sequence (P49747 21-757): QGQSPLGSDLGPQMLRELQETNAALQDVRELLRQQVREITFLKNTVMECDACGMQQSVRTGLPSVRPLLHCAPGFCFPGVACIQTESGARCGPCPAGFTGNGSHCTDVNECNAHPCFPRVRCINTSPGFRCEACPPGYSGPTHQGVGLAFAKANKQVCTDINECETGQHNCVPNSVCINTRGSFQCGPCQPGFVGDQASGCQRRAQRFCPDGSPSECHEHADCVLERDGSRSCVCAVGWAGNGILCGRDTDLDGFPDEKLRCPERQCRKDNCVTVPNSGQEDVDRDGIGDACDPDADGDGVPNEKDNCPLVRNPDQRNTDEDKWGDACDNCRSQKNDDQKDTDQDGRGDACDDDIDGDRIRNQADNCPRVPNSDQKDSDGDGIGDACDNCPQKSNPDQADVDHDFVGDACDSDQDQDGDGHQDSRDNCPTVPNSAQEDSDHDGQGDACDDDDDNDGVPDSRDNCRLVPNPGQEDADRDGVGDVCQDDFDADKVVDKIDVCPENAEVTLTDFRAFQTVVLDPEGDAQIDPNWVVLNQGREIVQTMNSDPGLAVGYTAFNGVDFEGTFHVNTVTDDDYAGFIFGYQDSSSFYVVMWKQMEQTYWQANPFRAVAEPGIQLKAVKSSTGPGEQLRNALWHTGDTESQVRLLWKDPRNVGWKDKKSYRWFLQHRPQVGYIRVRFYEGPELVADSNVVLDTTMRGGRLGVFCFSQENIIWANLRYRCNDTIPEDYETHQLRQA
ADAMTS4 variant β3-β4; β9-β10 (both loops replaced with those of ADAMTS13), sequence (O75173 52-837, change not shown): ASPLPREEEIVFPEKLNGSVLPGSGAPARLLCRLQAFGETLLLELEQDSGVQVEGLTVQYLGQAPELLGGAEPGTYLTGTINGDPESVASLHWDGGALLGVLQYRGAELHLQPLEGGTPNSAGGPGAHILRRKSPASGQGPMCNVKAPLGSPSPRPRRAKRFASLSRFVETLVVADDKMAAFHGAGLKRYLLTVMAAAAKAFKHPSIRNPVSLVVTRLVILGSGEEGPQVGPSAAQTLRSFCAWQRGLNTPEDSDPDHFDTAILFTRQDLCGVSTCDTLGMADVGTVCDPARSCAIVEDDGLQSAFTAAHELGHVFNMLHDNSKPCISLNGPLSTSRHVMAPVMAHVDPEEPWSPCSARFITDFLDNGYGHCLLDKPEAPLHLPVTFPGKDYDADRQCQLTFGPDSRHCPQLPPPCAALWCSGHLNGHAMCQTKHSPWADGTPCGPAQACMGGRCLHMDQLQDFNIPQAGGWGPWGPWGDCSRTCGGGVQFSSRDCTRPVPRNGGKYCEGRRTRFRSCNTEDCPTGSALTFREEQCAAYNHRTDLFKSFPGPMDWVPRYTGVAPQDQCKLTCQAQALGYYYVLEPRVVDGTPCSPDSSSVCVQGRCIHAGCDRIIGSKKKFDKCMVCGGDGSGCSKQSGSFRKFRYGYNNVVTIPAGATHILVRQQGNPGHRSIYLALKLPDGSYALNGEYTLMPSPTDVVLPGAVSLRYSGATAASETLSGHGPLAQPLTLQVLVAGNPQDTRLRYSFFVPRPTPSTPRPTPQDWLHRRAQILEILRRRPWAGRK
ADAMTS4 variant β1-β2 (residues 693–698 swapped with those of ADAMTS13), sequence (O75173 52-837, change not shown): as above

“ADAMTS4 variant β3-β4; β9-β10 (both loops replaced with those of ADAMTS13) (from UniProt O75173 52-837) (enzyme)” registered a reduction in COMPase activity at the S77-V78 bond compared to WT ADAMTS4 (hCOMP 520 nM, enzyme 12 nM, 2 h, 37 °C; densitometry of anti-QQS77 immunoblot, WT set as 100 %) of 20 % reduction.
For “ADAMTS4 variant β1-β2 (residues 693–698 swapped with those of ADAMTS13) (from UniProt O75173 52-837) (enzyme)”, the reduction in COMPase activity at the S77-V78 bond compared to WT ADAMTS4 (hCOMP 520 nM, enzyme 12 nM, 2 h, 37 °C; densitometry of anti-QQS77 immunoblot, WT set as 100 %) is 25 % reduction.
